From US7101845 (JOSLIN DIABETES CENTER, dated 2006)
Positions of bridges follow the written chain, without caps; N, C: chain ends.

Target: MCH receptor (MCHR1) (mouse, UniProt Q8JZL2 1-353)
Assay: cell-based or functional assay

MCH receptor (MCHR1), sequence (Q8JZL2 whole entry): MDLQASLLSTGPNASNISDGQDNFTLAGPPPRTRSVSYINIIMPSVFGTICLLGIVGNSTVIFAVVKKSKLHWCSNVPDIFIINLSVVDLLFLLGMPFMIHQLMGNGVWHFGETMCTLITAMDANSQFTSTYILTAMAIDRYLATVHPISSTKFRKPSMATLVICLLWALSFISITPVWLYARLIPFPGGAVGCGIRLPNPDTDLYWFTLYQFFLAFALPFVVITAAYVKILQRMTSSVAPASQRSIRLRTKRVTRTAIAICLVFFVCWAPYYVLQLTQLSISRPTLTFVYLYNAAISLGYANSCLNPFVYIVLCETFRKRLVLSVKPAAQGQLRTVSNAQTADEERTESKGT

## H-DFDMLRCMLGRVYRPCWQV-OH (disulfide 7-16 (inferred)) [Melanocyte concentrating hormone (MCH)]
  insulin secretion from islets of MCH over expressing mice: 4 fold
  insulin secretion from overnight cultured islets of C57B1/6J mice, 100 nM MCH, 30 min, 11.1 mM glucose: 2.4 fold
